The source of these data is patent US20210188989A1 (SYSTIMMUNE, published 2021).

Assay [1] addresses T1, recombinant cynomolgus 4-1BB extracellular domain protein (cynomolgus, UniProt A9YYE7 24-186).
T1 construct: Analyte in the Octet assay
T1 sequence: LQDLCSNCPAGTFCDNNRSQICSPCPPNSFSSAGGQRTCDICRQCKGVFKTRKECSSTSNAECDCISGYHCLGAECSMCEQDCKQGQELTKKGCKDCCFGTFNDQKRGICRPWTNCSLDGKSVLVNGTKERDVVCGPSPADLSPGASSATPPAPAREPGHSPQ
The assay can be described thus: Octet BLI; chimeric IgG from transfection supernatant on anti-human Fc biosensor; recombinant cynomolgus 41BB; column kdis(1/s) Cynomolgus. The source says: (§1) The heavy and light chain expression plasmids generated from each well were transiently co-transfected to produce rabbit/human chimeric antibodies. Recombinant antibody supernatants were confirmed to contain antibodies specific for human and cynomolgus 4-1BB using bio-layer interferometry analysis on a ForteBio Octet Red 96 instrument. Anti-human Fc biosensors (Pall ForteBio) were used to capture antibodies in the supernatants. Association to human or cynomolgus 4-1BB was observed by real-time interferometry by placing the biosensors in wells containing recombinant human or cynomolgus 4-1BB extracellular domain protein. Dissociation was measured after transfer of the biosensors into wells containing 10× kinetics buffer (Pall ForteBio). The software provided by the manufacturer was used to analyze the interferometry data. A summary of the primary BCC screening data and the corresponding screening data for 34 recombinant chimeric rabbit/human IgG antibodies is shown in FIG. 2.

Assay [2] deals with T2, recombinant human 4-1BB extracellular domain protein (human, UniProt Q07011 24-186).
T2 construct: extracellular domain; Analyte in the Octet assay; also called CD137; TNFRSF9
The assay can be described thus: Octet BLI; chimeric IgG from transfection supernatant on anti-human Fc biosensor; recombinant human 41BB; column kdis(1/s) Human.
Source text: as §1

B1: 420H6 (antibody, human IgG1, kappa, V domains shown)
VH: QQQLEESGGGLVKPGGTLTLTCKASGIDFSSSYYMCWVRQAPGEGLEWIACIYTGGSGTPHYASWAKGRFTISQTSSTTVTLQMTSLTAADTATYFCAREGSLWGQGTLVTVSS
VL: AQVLTQTASPVSAAVGGTVTINCQASQSVYSNWLSWYQQKPGQPPKRLIYSASTLASGVPSRFKGSGSGTQFTLTISDLECDDAATYYCAGGYNTVIDTFAFGGGTEVEFKR
notes: one of the 34 chimeric antibodies; rabbit variable regions on human IgG1 and human kappa; also called 420H6 chimeric rabbit/human IgG
Regarding B1, the figures for the koff in assay [1] and in assay [2] were 0.002 s⁻¹ and 0.00094 s⁻¹, respectively.

B2: 459F1 (antibody, human IgG1, kappa, V domains shown)
VH: ESLEESGGDLVKPGASLTLTCTASGIDFSRRYYMCWVRQAPGKGLEWIACMYTGSRDTPHYASWAKGRFTISQTSSTTVTLQMTSLTAADTATYFCAREGNLWGPGTLVTVSS
VL: AQVLTQTASPVSAAVGGTVTINCQSSQSVYSNWFSWYQQKPGQPPKLLIYSASTLASGVPSRFKGSGSGTQFTLTISDLECDDAATYYCAGGYNTVTDTFAFGGGTEVEFKR
notes: one of the 34 chimeric antibodies; rabbit variable regions on human IgG1 and human kappa; also called 459F1 chimeric rabbit/human IgG
As for B2, the results for the koff in assay [1] and in assay [2] were 0.0075 s⁻¹ and 0.00075 s⁻¹, respectively.

B3: 460C3 (antibody, human IgG1, kappa, V domains shown)
VH: QSLEESGGDLVKPGASLTLTCTASGIDFSRRYYMCWVRQAPGKGLEWIACIYTGSRDTPHYASWAKGRFTISQTSSTTVTLQMTSLTAADTATYFCAREGSLWGQGTLVTVSS
VL: AQVLTQTPSSVSAAVGGTVSISCQSSQSVYSNWFSWYQQKPGQPPKLLIYSASTLASGVPSRFKGSGSGTQFTLTISDLECDDAATYYCAGGYNTVIDTFAFGGGTEVEFKR
notes: one of the 34 chimeric antibodies; rabbit variable regions on human IgG1 and human kappa; also called 460C3 chimeric rabbit/human IgG
Take B3: the results for the off-rate (koff) in assay [1] and in assay [2] were 0.0041 s⁻¹ and 0.00067 s⁻¹, respectively.

B4: 418H5 (antibody, human IgG1, kappa, V domains shown)
VH: QSLEESGGRLVTPGTPLTLTCTVSGIDLSAYHMSWVRQAPGKGLEYIGMIGSSGTIHYANWAKGRFTISKTSTTVDLKITSPTTEDTATYFCARDSYNSDYAFNLWGPGTLVTVSS
VL: AQVLTQTPASVSATVGSTVTISCQSSPSVYKNNQLAWYQQKPGQPPKLLIYLASTLASGVPSRFKGSGSGTEFTLTISDLECADAATYYCAGGYSSSSDTAFGGGTEVEVKR
notes: one of the 34 chimeric antibodies; rabbit variable regions on human IgG1 and human kappa; also called 418H5 chimeric rabbit/human IgG
Consider B4, for which the koff in assay [1] amounted to 0.0016 s⁻¹; in assay [2] it was 0.0014 s⁻¹.

B5: 472E4 (antibody, human IgG1, kappa, V domains shown)
VH: QSLEESGGRLVTPGGSLTLTCTVSGFSLNNNAISWVRQAPGKGLEWVAIIQNTGTTDYARWAKGRFTISKTSTTVDLKINSPTTEDTATYFCGRGYGFESELVIWGPGTLVTVSS
VL: AAVLTQTPSSTSAAVGGTVTISCQSSQSVYNNNALAWYQKKPGQPPKLLIYLASTLASGVPSRFSGSGSGTQFTLTISDLECDDAATYYCLGVYNDDVDNGFGGGTEVVFKR
notes: one of the 34 chimeric antibodies; rabbit variable regions on human IgG1 and human kappa; also called 472E4 chimeric rabbit/human IgG
Consider B5, for which the koff in assay [1] was determined as 0.0018 s⁻¹; in assay [2] it was 0.0011 s⁻¹.

B6: 416F8 (antibody, human IgG1, kappa, V domains shown)
VH: QSLEESGGRLVTPGTPLTLTCTASGFSLSNYYMNWVRQAPGKGLEYIGIISSSGSAYYASWAKGRFTISRTSTTVDLRITSPTTEDTATYFCARGDYGMDLWGQGTLVTVSS
VL: AQVLTQTASSVSAPVGGTVTISCQSSQTVYNNNLLSWYQQKPGQRPKLLIYYASTLAFGVPSRFKGSGSGTEFTLTISDLECDDAATYFCQGGYSGWIYVFGGGTEVEVKR
notes: one of the 34 chimeric antibodies; rabbit variable regions on human IgG1 and human kappa; also called 416F8 chimeric rabbit/human IgG
Turning to B6, the koff in assay [1] amounted to 0.003 s⁻¹; in assay [2] it was 0.0043 s⁻¹.

B7: 413F3 (antibody, human IgG1, kappa, V domains shown)
VH: QSLEESGGDLVKPEGSLTLTCTGSGIDFSSNYMCWVRQAPGKGLEWIACIYGDSSDNSYSASWAKGRFTISKTSSTTVTLQMTSLTAADTATYFCARSGYSYLGYFNLWGPGTLVTVSS
VL: DVVMTQTPASVEAAVGGTVTIKCQASQSIYSNLAWYQQKPGQPPKLLIYSTSTLASGVPSRFSGSGSGTEFTLTISDLECADAATYYCQNYYGSSTDSYGNPFGGGTEVVFKR
notes: one of the 34 chimeric antibodies; rabbit variable regions on human IgG1 and human kappa; also called 413F3 chimeric rabbit/human IgG
On to B7, for which the figures for the koff in assay [1] and in assay [2] were 0.00079 s⁻¹ and 0.00054 s⁻¹, respectively.

B8: 420H5 (antibody, human IgG1, kappa, V domains shown)
VH: QSLEESGGDLVKPGASLTLTCTASGFSFSSNYWICWVRQAPGKGLEWIACIYVGSSGDTYYASWAKGRFTISKTSSTTVTLQMTSLTAADTATYFCARDSSSYYMFNLWGQGTLVTVSS
VL: ALVMTQTPASVSAAVGGTVTINCQASEDIDTYLAWYQQKPGQPPKLLIFYASDLASGVPSRFKGSGSGTEFTLTISGVQCDDAATYYCQGGYYTSSADTRGAFGGGTEVVVKR
notes: one of the 34 chimeric antibodies; rabbit variable regions on human IgG1 and human kappa; also called 420H5 chimeric rabbit/human IgG
On to B8, for which the results for the dissociation rate constant (koff) in assay [1] and in assay [2] were 0.0023 s⁻¹ and 0.0013 s⁻¹, respectively.

B9: 470C6 (antibody, human IgG1, kappa, V domains shown)
VH: QSLEEAGGDLVKPGASLTLTCTASGFSFTSSYYMCWVRQAPGKGLEWIACIYTGSSGSTYYANWAKGRFTISKTSSTTVTLQMTSLTAADTATYFCARDSSSYYMFNLWGQGTLVTVSS
VL: ALVMTQTPASVSAAVGGTVTINCQASEDIDNYLAWYQQKPGQPPKLLIFYASDLASGVPSRFSGSGSGTQFTLTISGVQCDDAATYYCQGGYYTSSTDTRGAFGGGTEVVVKR
notes: one of the 34 chimeric antibodies; rabbit variable regions on human IgG1 and human kappa; also called 470C6 chimeric rabbit/human IgG
In the case of B9, the off-rate constant (koff) in assay [1] turned out to be 0.0014 s⁻¹; in assay [2] it was 0.001 s⁻¹.

B10: 411H11 (antibody, human IgG1, kappa, V domains shown)
VH: QSVEESGGRLVTPGTPLTLTCTVSGFTISSHHMIWVRQAPGEGLQYIGFINDGDYTYYTNWAKGRFTISRTSTTVDLKMTSLTAADTATYFCARGVDGTSYPGLWGPGTLVTVSS
VL: DVVMTQTPASVSEPVRATVTIKCQASQSIGADLAWYQQKPGQPPKLLIYRASTLASGVPSRFSGSGSGTEFTLTISDLECADAATYYCQCIYYGTDDVIYHTFGGGTEVVFKR
notes: one of the 34 chimeric antibodies; rabbit variable regions on human IgG1 and human kappa; also called 411H11 chimeric rabbit/human IgG
As for B10, the off-rate constant (koff) in assay [1] is 0.0015 s⁻¹; in assay [2], 0.001 s⁻¹.

B11: 418E10 (antibody, human IgG1, kappa, V domains shown)
VH: QSLEESGGRLVTPGTPLTLTCTASDFSLSTYYMSWVRQAPGKGLEWIGSIYDSGAAYYATWAKGRFTISRTSTTVDLRMTSLTAADTATYFCARDPINNAIWGQGTLVTVSS
VL: ALVMTQTPSPVSAAVGGTVTINCQASQSIGSNLNWYQQKPGQPPKLLIYYVSTLASGVPSRFKGSGSGTEYTLTISGVQCDDAATYYCLGVWNYWGDDGTAFGGGTEVEVKR
notes: one of the 34 chimeric antibodies; rabbit variable regions on human IgG1 and human kappa; also called 418E10 chimeric rabbit/human IgG
B11: the off-rate constant (koff) in assay [1] is 0.0015 s⁻¹; in assay [2] it was 0.0011 s⁻¹.

B12: 418E4 (antibody, human IgG1, kappa, V domains shown)
VH: QSLEESGGRLVTPGTPLTLTCTASEFSLSSYYMSWVRQAPGKGLEWIGSIYASGSAYYASWAKGRFTISRTSTTVDLKMTSLTAADTATYFCVRDPINNDIWGPGTLVTVSS
VL: ALVMTQTPSPVSAAVGGTVTINCQASQSIATNLNWYQQKPGQPPKLLIYYTSSLASGVPSRFSGSGSGTEFTLTISGVQCDDAATYYCLGVWNYWGDDGTAFGGGTEVEFKR
notes: one of the 34 chimeric antibodies; rabbit variable regions on human IgG1 and human kappa; also called 418E4 chimeric rabbit/human IgG
In the case of B12, the dissociation rate constant (koff) in assay [1] is 0.005 s⁻¹; in assay [2], 0.0036 s⁻¹.

B13: 466F6 (antibody, human IgG1, kappa, V domains shown)
VH: RSLEESGGRLVTPGTPLTLTCTASGFTISSYHMQWVRQAPGKGLEYIGTISSGGNVYYASWARGRFTISRPSSTTVDLKMTSLTTEDTATYFCARDSGYSDPMWGPGTLVTVSS
VL: DVVMTQTPASVSEPVGGTVTIKCQASQNIRTYLSWYQQKPGQRPKLLIYAAANLASGVPSRFSGSRSGTEFTLTISDLECADAATYYCQCTYLGTDYVGGAFGGGTEVEFKR
notes: one of the 34 chimeric antibodies; rabbit variable regions on human IgG1 and human kappa; also called 466F6 chimeric rabbit/human IgG
In the case of B13, the dissociation rate constant (koff) in assay [1] amounted to 0.0026 s⁻¹; in assay [2], 0.0021 s⁻¹.
